The record followed here is the RNAGym collection of RNA variant scans (doi:10.7554/elife.80360).

B1: HDV Ribozyme (parent)
chain: GGCCGGCAUGGUCCCAGCCUCCUCGCUGGCGCCGGCUGGGCAACAUUCCGAGGGGACCGUCCCCUCGGUAAUGGCGAAUGGGACCCA

The variants in the series derive from B1. Briefly: self-cleavage, relative activity (ratio to wild type); higher = more cleavage; co-transcriptional.
Regarding A51G G59C, the self-cleavage amounted to 0.895. As for G11A C75G, the self-cleavage was 0.141. With G5A G10C, the self-cleavage is 0.308. With C32U U37G, the self-cleavage amounted to 0.166. In the case of G25U U79A, the self-cleavage worked out at 0.0875. U27C C63U: the self-cleavage was 0.73.

Consider A78C C86U, for which the self-cleavage is 0.225. In the case of G52C G68A, the self-cleavage was found to be 0.564. As for C44A G53C, the figure is 0.686; as for A51C C66A, 1.09; as for C15U G17U, 0.415.

Turning to A42G G50C, the self-cleavage was determined as 0.287. Regarding G39U C84G, the self-cleavage is 0.348. Turning to G28C G55C, the self-cleavage was 0.0692.

On to G5C C61G, for which the self-cleavage amounted to 0.287. For the variant A43U G76A, the self-cleavage was found to be 0.554. Turning to C7G C19G, the self-cleavage came out at 0.0791. C24A C49G: the self-cleavage is 0.787. Consider C4U A16G, for which the self-cleavage was 0.862.

Regarding A45G U72A, the self-cleavage turned out to be 0.604. Consider G54A A78G, for which the self-cleavage was found to be 0.332. Consider A70C A71U, for which the self-cleavage was 0.791. As for C30A C62A, the figure is 0.578. In the case of U79G C84U, the self-cleavage was 0.554.

In the case of C33G G68U, the self-cleavage was 0.173.

Turning to A71C G80C, the self-cleavage amounted to 0.302. Turning to C13A A45G, the self-cleavage amounted to 0.158. C21G C85A: the self-cleavage worked out at 0.0504. With C15U C85A the figure was 0.962; with C57A U60C, 1.01. For A51U C63G, the self-cleavage was 0.208. As for U9G C58U, the figure is 1.2. With G53U A83C the figure was 0.6. As for G55U C61A, the self-cleavage came to 1.09. With G11U U20G the figure was 0.0791. For the variant C49U G82U, the self-cleavage was 0.47. Turning to C19G G76C, the self-cleavage is 0. For the variant G5U G10C, the self-cleavage is 0.462. In the case of A77U G82C, the self-cleavage was 0.208. With G31U A51C, the self-cleavage stood at 0.462. On to G55U U60G, for which the self-cleavage was determined as 1.12. In the case of U27G G34U, the self-cleavage was found to be 0.538. A70C A78G: the self-cleavage turned out to be 0.519. Regarding G68C G74A, the self-cleavage worked out at 0.362. With G50C G54U the figure was 0.374. As for G31C A51G, the self-cleavage worked out at 0.341.

On to G1C U47A, for which the self-cleavage worked out at 0.256. Take C32G C64A: the self-cleavage is 0.0755. In the case of G11A A56C, the self-cleavage turned out to be 0.298.

Regarding A83C C84A, the self-cleavage amounted to 0.78. As for G40A U46C, the figure is 0.525; as for U47A C63U, 1. Regarding U9C C41G, the self-cleavage amounted to 0.831. As to C21G A83C, the self-cleavage amounted to 0. As for A16U C26A, the figure is 1.05.

In the case of G39C C61U, the self-cleavage is 0.233. Regarding C44A C84U, the self-cleavage amounted to 0.431. Consider C4A C41A, for which the self-cleavage amounted to 0.117. On to C4U U47A, for which the self-cleavage was 0.739. For C13G U23C, the self-cleavage is 0. In the case of G17U A43G, the self-cleavage was determined as 0.237. Take C14G C84G: the self-cleavage came out at 0.128. Regarding G17U G54U, the self-cleavage came to 0.546. With G40U A83C, the self-cleavage is 0.453.

In the case of C22G C61A, the self-cleavage came to 0.145. C63A G80C: the self-cleavage was 0.332. With G6A U60G the figure was 0.365. Turning to G17U C30G, the self-cleavage came to 0.486.

With A42C G52U, the self-cleavage was determined as 0.282. Take C7U C24U: the self-cleavage was found to be 0.261.

A70G G74A: the self-cleavage amounted to 0.453. Turning to C3A A78C, the self-cleavage amounted to 0.0785. Regarding C33U C86U, the self-cleavage stood at 0.928. As for G17A G40C, the self-cleavage is 0.113. In the case of U12A G38A, the self-cleavage worked out at 0. For G1A C4G, the self-cleavage stood at 0.123.

Regarding U79G G80C, the self-cleavage was 0.277. C57A A77C: the self-cleavage was determined as 0.314. As for G67C G73U, the figure is 0.322; as for U47G G52A, 0.978; as for G5A G67U, 0.17. In the case of U12A C62G, the self-cleavage is 0.133.

On to C21U U37A, for which the self-cleavage was 0.157.

For U65G C66G, the self-cleavage worked out at 0.812. As for G10A C13A, the figure is 0.0941; as for C21U C36U, 0.218; as for U9C G55A, 1.27.

Consider G10A G73A, for which the self-cleavage stood at 0.175. On to G5C U60A, for which the self-cleavage amounted to 0.166. On to C64U U79C, for which the self-cleavage stood at 0.306.

Regarding U23A U69G, the self-cleavage came out at 0.911. Regarding C41G C86U, the self-cleavage amounted to 0.657. As for C22A G53U, the self-cleavage was found to be 0.376.

In the case of G40U G67A, the self-cleavage turned out to be 0.699. As for C19A U65A, the figure is 0.273; as for C24U U37A, 0.18. Take C30A U72G: the self-cleavage is 0.185. As for G25A C61A, the self-cleavage was determined as 0.201. As for G11A A42G, the self-cleavage stood at 0.0692. As for C14G U65A, the figure is 0.65; as for C21U G29U, 0.0504; as for U9A U37G, 0.208. With C26U A42C, the self-cleavage worked out at 0.308. With C7U C49U the figure was 0.727; with C15A G40U, 0.352. As for G11A C33U, the figure is 0.271. For G35C G38U, the self-cleavage came out at 0.0875. As to C24U U60A, the self-cleavage is 0.627. Regarding C33G C44U, the self-cleavage was 0.172. Take C33U C85G: the self-cleavage was determined as 0.494.

As for C57G C63A, the self-cleavage was 0.956. With C18U C19A, the self-cleavage stood at 0.0906. For C7A G74U, the self-cleavage came to 0.201. With C7A G74A, the self-cleavage was 0.026. For the variant G17C A51G, the self-cleavage was determined as 0.317. Take G53A C62A: the self-cleavage turned out to be 1.05. With U37G G38A the figure was 0.111; with C4G U12A, 0; with U9A G10A, 1.03. Take A42U C62U: the self-cleavage was found to be 0.742. As for C26A G55U, the self-cleavage worked out at 1.17. As for U9A A71C, the figure is 1.05; as for G6U A8U, 0.403; as for G11C C61A, 0.185. U27G G82C: the self-cleavage was determined as 0.237. For the variant U20G A77G, the self-cleavage was 0.0692. Take C22A A42U: the self-cleavage came to 0.111. For the variant A71U A77U, the self-cleavage was 0.415. Regarding A43C G54U, the self-cleavage turned out to be 0.374. As to A8G C49A, the self-cleavage was found to be 0.939. Regarding C21U C24G, the self-cleavage came out at 0.0545. On to G50A G74A, for which the self-cleavage was 0.411. Turning to C33G C49A, the self-cleavage is 0.119.

As to C30A A56U, the self-cleavage was determined as 0.727. With C15A G52U, the self-cleavage was found to be 0.844. G55A A56G: the self-cleavage is 0.882. As to A45C G81C, the self-cleavage worked out at 0.0489. As to G17C C24A, the self-cleavage worked out at 0.0519. For A43C A71C, the self-cleavage was found to be 0.534. As for C15G A70G, the self-cleavage came out at 0.554.

For the variant G31C C85G, the self-cleavage was 0.341. For U20G C32G, the self-cleavage came to 0.0475.

With C26A G74C, the self-cleavage came to 0.237. On to C58A G68C, for which the self-cleavage came to 1.03. Take U47C G55U: the self-cleavage amounted to 0.831. Turning to U60A G68C, the self-cleavage is 0.791. As for C26U C62G, the self-cleavage is 0.618. Turning to G50A G73C, the self-cleavage stood at 0.436. With G1U G2U, the self-cleavage is 0.366.

In the case of C3G G81A, the self-cleavage came out at 0.201. For C32U C36U, the self-cleavage was determined as 0.493. As for G2A C48U, the figure is 0.216; as for C32A G74C, 0.108. As for C30U G35C, the self-cleavage worked out at 0.185. As to A8U C62A, the self-cleavage came to 0.956. Consider G6C G40A, for which the self-cleavage was 0.259. For the variant G5U G80U, the self-cleavage was 0.0405.

On to A42C A70G, for which the self-cleavage came out at 0.312. With U27C G54A the figure was 0.598; with U46A G73A, 0.554.

Regarding C15U G39C, the self-cleavage is 0.0639. For the variant A16G C86A, the self-cleavage came out at 0.76. For C26U U46G, the self-cleavage is 0.787.

On to C41A C49G, for which the self-cleavage was found to be 0.91.

G40A A45G: the self-cleavage is 0.815. As to C4U G50U, the self-cleavage amounted to 0.656. On to G28U C48G, for which the self-cleavage stood at 0.161.
